# Assay: two-colour ID-FRAP, CHO-K1 large ER inclusions
# Conditions: glycan lost; control: YFP-Z coexpressed with HaloTag-CRT
substance,measurement,value
"Z-α1-antitrypsin: YFP-ZN46A,N83A,N247A (GlycMut)","other: calreticulin-driven immobilisation in ER inclusions, other: % cells with immobile YFP-Z",abolishes
